Test results as given in US20030203869A1.

Key:
[1] = molecular target: purified HLA-A2.1 molecules (human); experiment: inhibition of binding of a labeled reference peptide to purified HLA-A2.1; settings: remark: other sources report otherwise
[2] = molecular target: purified HLA-A11 molecules (human); experiment: inhibition of binding of a labeled reference peptide to purified HLA-A11

| Binder | IC50 [1] [nM] | IC50 [2] [nM] |
| --- | --- | --- |
| WLSLLVPFV (modifications not checked) [HBV Env 335 (HBV env 335-343) CTL epitope peptide …] | 5 |  |
| TVYYGVPVWK (modifications not checked) [HIV Env 49 (HIV env 49-58) CTL epitope peptide …] |  | 4 |
